Test results: the supplement of paper PMC7125110
± gives the standard error. Variants at the floor of the assay were thinned out.

B1: glmS ribozyme (parent)
chain: AUAAAAGCGCCAGAACUACAGAAAUGUAGUUGACGAGGAGGAGGUUUAUCGAAUUUUCGGCGGAUGCCUCCAAA

Tests used:
Conditions in all cases: with glucosamine-6-phosphate
[1] = variants of: B1; test: self-cleavage kobs at 640 uM GlcN6P; higher = faster cleavage; RNA array
How it was run: (§1)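 Barcoded ribozyme variants on sequenced MiSeq chips were transcribed in situ by E. coli RNA polymerase and followed at 37 °C through a hybridised Cy3 probe. Glucosamine-6-phosphate at 40 μM to 10 mM in HEPES/KCl/Mg(OAc)2 buffer was flowed in, and tiles were imaged over ~14 h. Signals were normalised to baseline and to non-cleaving reference variants, and per-tile medians were fit to one- or two-exponential decays to give kobs. Weighted Michaelis–Menten fits across concentrations gave kcat and KM.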

[2] = variants of: B1; test: self-cleavage kobs at 2500 uM GlcN6P; higher = faster cleavage; RNA array
How it was run: as §1

[3] = variants of: B1; test: self-cleavage kobs at 10000 uM GlcN6P; higher = faster cleavage; RNA array
How it was run: as §1

C11A C50G U57G
self-cleavage kobs at 640 uM GlcN6P [1]: 8.51e-05 ± 3e-05 s⁻¹
self-cleavage kobs at 2500 uM GlcN6P [2]: 7.4e-05 ± 2.5e-05 s⁻¹

G9C A48G C67G C68A
self-cleavage kobs at 640 uM GlcN6P [1]: 9.72e-05 ± 4.1e-05 s⁻¹
self-cleavage kobs at 10000 uM GlcN6P [3]: 0.000631 ± 0.00016 s⁻¹

C11A G13U U57G C71U
self-cleavage kobs at 640 uM GlcN6P [1]: 4.71e-05 ± 2.2e-05 s⁻¹

C10G G38A C58G A64C
self-cleavage kobs at 640 uM GlcN6P [1]: 0.000102 ± 4.5e-05 s⁻¹

G9U A15U A42G G63C U69G
self-cleavage kobs at 640 uM GlcN6P [1]: < 1e-05 s⁻¹
self-cleavage kobs at 2500 uM GlcN6P [2]: < 1e-05 s⁻¹

G9C G40A G66U C68G
self-cleavage kobs at 640 uM GlcN6P [1]: < 1e-05 s⁻¹

G9C C10U U55A
self-cleavage kobs at 640 uM GlcN6P [1]: < 1e-05 s⁻¹
self-cleavage kobs at 2500 uM GlcN6P [2]: < 1e-05 s⁻¹

C11A U30G G32U G44A G66A
self-cleavage kobs at 640 uM GlcN6P [1]: < 1e-05 s⁻¹
self-cleavage kobs at 2500 uM GlcN6P [2]: < 1e-05 s⁻¹

G9U C34U U55C G60C G63A
self-cleavage kobs at 640 uM GlcN6P [1]: < 1e-05 s⁻¹

C10U A15U G35A C61G
self-cleavage kobs at 640 uM GlcN6P [1]: < 1e-05 s⁻¹
self-cleavage kobs at 2500 uM GlcN6P [2]: < 1e-05 s⁻¹

C10U G13A G29A G41A
self-cleavage kobs at 640 uM GlcN6P [1]: < 1e-05 s⁻¹

G9C C16G
self-cleavage kobs at 640 uM GlcN6P [1]: < 1e-05 s⁻¹
self-cleavage kobs at 2500 uM GlcN6P [2]: < 1e-05 s⁻¹

G9U G41A A42U
self-cleavage kobs at 640 uM GlcN6P [1]: < 1e-05 s⁻¹
self-cleavage kobs at 2500 uM GlcN6P [2]: < 1e-05 s⁻¹

G9C U31G U57A
self-cleavage kobs at 640 uM GlcN6P [1]: < 1e-05 s⁻¹

G9C A39U G40U
self-cleavage kobs at 640 uM GlcN6P [1]: < 1e-05 s⁻¹
self-cleavage kobs at 2500 uM GlcN6P [2]: < 1e-05 s⁻¹

C10A U56A C70U
self-cleavage kobs at 640 uM GlcN6P [1]: 6.36e-05 ± 2.6e-05 s⁻¹
self-cleavage kobs at 2500 uM GlcN6P [2]: 0.000147 ± 6.5e-05 s⁻¹

G9C C50U U55G
self-cleavage kobs at 640 uM GlcN6P [1]: < 1e-05 s⁻¹
self-cleavage kobs at 2500 uM GlcN6P [2]: < 1e-05 s⁻¹

C10U U30A A33U
self-cleavage kobs at 640 uM GlcN6P [1]: < 1e-05 s⁻¹

G9C A15C A53U
self-cleavage kobs at 640 uM GlcN6P [1]: < 1e-05 s⁻¹

G9C C11G
self-cleavage kobs at 640 uM GlcN6P [1]: < 1e-05 s⁻¹
self-cleavage kobs at 2500 uM GlcN6P [2]: < 1e-05 s⁻¹
self-cleavage kobs at 10000 uM GlcN6P [3]: < 1e-05 s⁻¹

G9U G32C A33G A39G A48U C61U G63U A64U
self-cleavage kobs at 640 uM GlcN6P [1]: < 1e-05 s⁻¹
self-cleavage kobs at 2500 uM GlcN6P [2]: < 1e-05 s⁻¹

C11A C50G C61A
self-cleavage kobs at 640 uM GlcN6P [1]: 0.000272 ± 7.9e-05 s⁻¹
self-cleavage kobs at 2500 uM GlcN6P [2]: 0.000188 ± 3.7e-05 s⁻¹

G9A U55C
self-cleavage kobs at 640 uM GlcN6P [1]: < 1e-05 s⁻¹
self-cleavage kobs at 2500 uM GlcN6P [2]: < 1e-05 s⁻¹

C10U G13A U45G U49C
self-cleavage kobs at 640 uM GlcN6P [1]: < 1e-05 s⁻¹

C11A U55G C61G G62C
self-cleavage kobs at 640 uM GlcN6P [1]: < 1e-05 s⁻¹

G9U C10A A42U G51A U54G G60C
self-cleavage kobs at 640 uM GlcN6P [1]: < 1e-05 s⁻¹

C10A U47A C70G
self-cleavage kobs at 640 uM GlcN6P [1]: 0.000288 ± 0.00012 s⁻¹

C11G A42U G59U
self-cleavage kobs at 640 uM GlcN6P [1]: < 1e-05 s⁻¹
self-cleavage kobs at 2500 uM GlcN6P [2]: < 1e-05 s⁻¹

C10G U47C U49C U55G
self-cleavage kobs at 640 uM GlcN6P [1]: < 1e-05 s⁻¹

C10A G35C C70U
self-cleavage kobs at 640 uM GlcN6P [1]: < 1e-05 s⁻¹

G9A A42G A52G
self-cleavage kobs at 640 uM GlcN6P [1]: < 1e-05 s⁻¹

C10A A12C G43A C67U C70G
self-cleavage kobs at 640 uM GlcN6P [1]: < 1e-05 s⁻¹
self-cleavage kobs at 2500 uM GlcN6P [2]: < 1e-05 s⁻¹

G9U U54G C68U
self-cleavage kobs at 640 uM GlcN6P [1]: < 1e-05 s⁻¹

G9U A12C
self-cleavage kobs at 640 uM GlcN6P [1]: < 1e-05 s⁻¹
self-cleavage kobs at 10000 uM GlcN6P [3]: < 1e-05 s⁻¹

C10U A36U C70A
self-cleavage kobs at 640 uM GlcN6P [1]: 0.00107 ± 0.00039 s⁻¹

C11A U31G G35C
self-cleavage kobs at 640 uM GlcN6P [1]: < 1e-05 s⁻¹
self-cleavage kobs at 2500 uM GlcN6P [2]: < 1e-05 s⁻¹

C10U G37C G60A
self-cleavage kobs at 640 uM GlcN6P [1]: < 1e-05 s⁻¹

G9C A33G G35A G63U
self-cleavage kobs at 640 uM GlcN6P [1]: < 1e-05 s⁻¹

C11A C67U C71G
self-cleavage kobs at 640 uM GlcN6P [1]: 0.000295 ± 9e-05 s⁻¹
self-cleavage kobs at 2500 uM GlcN6P [2]: 0.00108 ± 0.00018 s⁻¹
self-cleavage kobs at 10000 uM GlcN6P [3]: 4.96e-05 ± 1.3e-05 s⁻¹

C10A A42G U47C C50G C70U
self-cleavage kobs at 640 uM GlcN6P [1]: < 1e-05 s⁻¹

G9C A53C C70U
self-cleavage kobs at 640 uM GlcN6P [1]: < 1e-05 s⁻¹
self-cleavage kobs at 2500 uM GlcN6P [2]: < 1e-05 s⁻¹

C10U A53U C67A C68G
self-cleavage kobs at 640 uM GlcN6P [1]: 4.13e-05 ± 1.9e-05 s⁻¹

C10A C16A A36C A42G U46A U54C U56G G63U
self-cleavage kobs at 640 uM GlcN6P [1]: < 1e-05 s⁻¹
self-cleavage kobs at 10000 uM GlcN6P [3]: < 1e-05 s⁻¹

C10U U31C U49C
self-cleavage kobs at 640 uM GlcN6P [1]: < 1e-05 s⁻¹

C11G C16G G38A G63A
self-cleavage kobs at 640 uM GlcN6P [1]: < 1e-05 s⁻¹

C10G G44U C70U
self-cleavage kobs at 640 uM GlcN6P [1]: < 1e-05 s⁻¹

G9U A36G A39U
self-cleavage kobs at 640 uM GlcN6P [1]: < 1e-05 s⁻¹
self-cleavage kobs at 2500 uM GlcN6P [2]: < 1e-05 s⁻¹

C10U G29U U55G
self-cleavage kobs at 640 uM GlcN6P [1]: < 1e-05 s⁻¹
self-cleavage kobs at 2500 uM GlcN6P [2]: < 1e-05 s⁻¹

G9C A14G G37U G62C C71A
self-cleavage kobs at 640 uM GlcN6P [1]: < 1e-05 s⁻¹
self-cleavage kobs at 2500 uM GlcN6P [2]: < 1e-05 s⁻¹

C11A A14G G41U G51C
self-cleavage kobs at 640 uM GlcN6P [1]: < 1e-05 s⁻¹
self-cleavage kobs at 2500 uM GlcN6P [2]: < 1e-05 s⁻¹

C11A U30G U54G
self-cleavage kobs at 640 uM GlcN6P [1]: 4.96e-05 ± 1.4e-05 s⁻¹
self-cleavage kobs at 2500 uM GlcN6P [2]: 0.000114 ± 2.1e-05 s⁻¹

C11G A12U G41U A53G C67G
self-cleavage kobs at 640 uM GlcN6P [1]: < 1e-05 s⁻¹

G9A C68A U69C
self-cleavage kobs at 640 uM GlcN6P [1]: < 1e-05 s⁻¹

G9A G44U A52G U65G
self-cleavage kobs at 640 uM GlcN6P [1]: < 1e-05 s⁻¹
self-cleavage kobs at 2500 uM GlcN6P [2]: < 1e-05 s⁻¹

C8U G63U C68U
self-cleavage kobs at 640 uM GlcN6P [1]: < 1e-05 s⁻¹

G9A C10A U30C
self-cleavage kobs at 640 uM GlcN6P [1]: < 1e-05 s⁻¹
self-cleavage kobs at 2500 uM GlcN6P [2]: < 1e-05 s⁻¹

C11A G32C G41U A52U
self-cleavage kobs at 640 uM GlcN6P [1]: < 1e-05 s⁻¹

C10A U30C G37U
self-cleavage kobs at 640 uM GlcN6P [1]: < 1e-05 s⁻¹

G9A G41A A53U
self-cleavage kobs at 640 uM GlcN6P [1]: < 1e-05 s⁻¹
self-cleavage kobs at 2500 uM GlcN6P [2]: < 1e-05 s⁻¹

C10G G35A A42C
self-cleavage kobs at 640 uM GlcN6P [1]: < 1e-05 s⁻¹
self-cleavage kobs at 2500 uM GlcN6P [2]: < 1e-05 s⁻¹

G9A G38A A42G U69G C70U C71A
self-cleavage kobs at 640 uM GlcN6P [1]: < 1e-05 s⁻¹

C8U G35C C68U
self-cleavage kobs at 640 uM GlcN6P [1]: < 1e-05 s⁻¹

G9C A12C C19A G51U U54G G63C C70G
self-cleavage kobs at 640 uM GlcN6P [1]: < 1e-05 s⁻¹
self-cleavage kobs at 2500 uM GlcN6P [2]: < 1e-05 s⁻¹

C10U A33C U46C G51C G60C
self-cleavage kobs at 640 uM GlcN6P [1]: < 1e-05 s⁻¹
self-cleavage kobs at 2500 uM GlcN6P [2]: < 1e-05 s⁻¹

G9U G29U G44A
self-cleavage kobs at 640 uM GlcN6P [1]: < 1e-05 s⁻¹
self-cleavage kobs at 2500 uM GlcN6P [2]: < 1e-05 s⁻¹

C10U G32A G59A G60A
self-cleavage kobs at 640 uM GlcN6P [1]: < 1e-05 s⁻¹

C10G A14U
self-cleavage kobs at 640 uM GlcN6P [1]: < 1e-05 s⁻¹
self-cleavage kobs at 10000 uM GlcN6P [3]: < 1e-05 s⁻¹
